Measured values reported in patent US20240002544A1 (NOVIMMUNE, published 2024).

B1: AI5O30/N (bispecific antibody, human IgG1, kappa, lambda, L234A L235A)
heavy: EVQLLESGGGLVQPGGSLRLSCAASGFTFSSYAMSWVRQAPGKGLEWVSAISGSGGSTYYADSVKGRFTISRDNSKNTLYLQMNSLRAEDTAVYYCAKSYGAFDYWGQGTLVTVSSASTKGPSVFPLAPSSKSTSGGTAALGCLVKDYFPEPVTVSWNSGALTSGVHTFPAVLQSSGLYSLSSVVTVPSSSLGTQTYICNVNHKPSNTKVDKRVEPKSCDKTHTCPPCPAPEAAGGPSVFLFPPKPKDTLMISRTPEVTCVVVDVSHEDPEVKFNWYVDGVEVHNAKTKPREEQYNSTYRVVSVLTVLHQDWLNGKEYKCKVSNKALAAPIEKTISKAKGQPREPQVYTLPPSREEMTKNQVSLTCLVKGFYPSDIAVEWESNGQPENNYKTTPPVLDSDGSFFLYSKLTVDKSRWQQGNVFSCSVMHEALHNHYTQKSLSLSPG
light 1: DIVMTQTPLSLSVTPGQPASISCKSSGDLLTFEGKTYLYWYLQKPGQPPQLLIYEVSNRFSGVPDRFSGSGSGTDFTLKISRVEAEDVGVYYCMQAHSTRFAFTFGQGTKVEIKRTVAAPSVFIFPPSDEQLKSGTASVVCLLNNFYPREAKVQWKVDNALQSGNSQESVTEQDSKDSTYSLSSTLTLSKADYEKHKVYACEVTHQGLSSPVTKSFNRGEC
light 2: not shown
notes: κλ-body, huIgG1-LALAPA; also called AI5 (AI_1A9) kappa / O30 (O1b6_1D1) lambda
B2: AI10O30/N (bispecific antibody, human IgG1, kappa, lambda, L234A L235A)
heavy: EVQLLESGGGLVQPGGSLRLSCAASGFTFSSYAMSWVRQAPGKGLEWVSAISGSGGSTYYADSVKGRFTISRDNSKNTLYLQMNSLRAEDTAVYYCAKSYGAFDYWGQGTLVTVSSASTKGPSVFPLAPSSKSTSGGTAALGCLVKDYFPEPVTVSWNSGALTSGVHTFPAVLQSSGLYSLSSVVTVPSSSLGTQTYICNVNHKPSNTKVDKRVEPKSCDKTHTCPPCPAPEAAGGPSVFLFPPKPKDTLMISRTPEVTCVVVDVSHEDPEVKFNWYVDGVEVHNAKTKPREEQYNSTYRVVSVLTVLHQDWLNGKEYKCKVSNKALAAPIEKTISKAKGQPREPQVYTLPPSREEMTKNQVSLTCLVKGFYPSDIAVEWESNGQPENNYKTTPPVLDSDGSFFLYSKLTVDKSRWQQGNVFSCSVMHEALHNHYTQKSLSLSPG
light 1: DIVMTQTPLSLSVTPGQPASISCKSSGDLLEFAGKTYLYWYLQKPGQPPQLLIYEVSNRFSGVPDRFSGSGSGTDFTLKISRVEAEDVGVYYCMQAHGSKIGFTFGQGTKVEIKRTVAAPSVFIFPPSDEQLKSGTASVVCLLNNFYPREAKVQWKVDNALQSGNSQESVTEQDSKDSTYSLSSTLTLSKADYEKHKVYACEVTHQGLSSPVTKSFNRGEC
light 2: not shown
notes: κλ-body, huIgG1-LALAPA; also called AI10 (AI_1B6) kappa / O30 (O1b6_1D1) lambda
B3: AI5O35/N (bispecific antibody, human IgG1, kappa, lambda, L234A L235A)
heavy: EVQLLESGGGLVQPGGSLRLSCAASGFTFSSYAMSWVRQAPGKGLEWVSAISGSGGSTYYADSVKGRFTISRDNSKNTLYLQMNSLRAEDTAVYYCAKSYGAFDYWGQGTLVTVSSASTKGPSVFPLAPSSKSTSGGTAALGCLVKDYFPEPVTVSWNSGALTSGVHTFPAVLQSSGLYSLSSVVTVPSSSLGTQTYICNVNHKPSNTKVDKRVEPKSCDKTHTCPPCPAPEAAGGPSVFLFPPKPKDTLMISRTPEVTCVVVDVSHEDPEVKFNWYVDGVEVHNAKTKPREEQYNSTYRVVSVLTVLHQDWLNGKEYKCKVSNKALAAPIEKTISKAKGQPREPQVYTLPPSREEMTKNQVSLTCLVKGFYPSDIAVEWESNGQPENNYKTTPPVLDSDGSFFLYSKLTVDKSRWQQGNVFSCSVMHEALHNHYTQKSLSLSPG
light 1: DIVMTQTPLSLSVTPGQPASISCKSSGDLLTFEGKTYLYWYLQKPGQPPQLLIYEVSNRFSGVPDRFSGSGSGTDFTLKISRVEAEDVGVYYCMQAHSTRFAFTFGQGTKVEIKRTVAAPSVFIFPPSDEQLKSGTASVVCLLNNFYPREAKVQWKVDNALQSGNSQESVTEQDSKDSTYSLSSTLTLSKADYEKHKVYACEVTHQGLSSPVTKSFNRGEC
light 2: QPVLTQPVSLSASPGASVSLTCTLRSDIRVRDYRIFWYQQKPGSPPQYLLRYKTDSDKQQGSGVPSRFSGSKDASANAGILLISGLQSEDEADYYCMIWHRTTGTSLVFGGGTKLTVLGQPKAAPSVTLFPPSSEELQANKATLVCLISDFYPGAVTVAWKADSSPVKAGVETTTPSKQSNNKYAASSYLSLTPEQWKSHRSYSCQVTHEGSTVEKTVAPTECS
notes: κλ-body, huIgG1-LALAPA; also called AI5 (AI_1A9) kappa / O35 (Ob8_A10) lambda
B4: AI10O35/N (bispecific antibody, human IgG1, kappa, lambda, L234A L235A)
heavy: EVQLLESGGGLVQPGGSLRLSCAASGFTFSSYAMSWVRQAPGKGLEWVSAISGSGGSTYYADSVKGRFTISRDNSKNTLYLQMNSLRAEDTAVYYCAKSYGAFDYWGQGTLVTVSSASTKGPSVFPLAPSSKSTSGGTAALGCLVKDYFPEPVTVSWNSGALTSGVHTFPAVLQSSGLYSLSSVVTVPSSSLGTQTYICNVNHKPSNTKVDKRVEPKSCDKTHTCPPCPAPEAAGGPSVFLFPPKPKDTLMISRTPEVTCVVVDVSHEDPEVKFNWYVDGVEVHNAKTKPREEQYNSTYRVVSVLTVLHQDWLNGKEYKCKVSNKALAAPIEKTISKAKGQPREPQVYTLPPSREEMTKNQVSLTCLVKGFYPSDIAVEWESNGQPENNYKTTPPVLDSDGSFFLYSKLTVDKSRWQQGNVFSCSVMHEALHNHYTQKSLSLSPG
light 1: DIVMTQTPLSLSVTPGQPASISCKSSGDLLEFAGKTYLYWYLQKPGQPPQLLIYEVSNRFSGVPDRFSGSGSGTDFTLKISRVEAEDVGVYYCMQAHGSKIGFTFGQGTKVEIKRTVAAPSVFIFPPSDEQLKSGTASVVCLLNNFYPREAKVQWKVDNALQSGNSQESVTEQDSKDSTYSLSSTLTLSKADYEKHKVYACEVTHQGLSSPVTKSFNRGEC
light 2: QPVLTQPVSLSASPGASVSLTCTLRSDIRVRDYRIFWYQQKPGSPPQYLLRYKTDSDKQQGSGVPSRFSGSKDASANAGILLISGLQSEDEADYYCMIWHRTTGTSLVFGGGTKLTVLGQPKAAPSVTLFPPSSEELQANKATLVCLISDFYPGAVTVAWKADSSPVKAGVETTTPSKQSNNKYAASSYLSLTPEQWKSHRSYSCQVTHEGSTVEKTVAPTECS
notes: κλ-body, huIgG1-LALAPA; also called AI10 (AI_1B6) kappa / O35 (Ob8_A10) lambda
B5: AI5O41/N (bispecific antibody, human IgG1, kappa, lambda, L234A L235A)
heavy: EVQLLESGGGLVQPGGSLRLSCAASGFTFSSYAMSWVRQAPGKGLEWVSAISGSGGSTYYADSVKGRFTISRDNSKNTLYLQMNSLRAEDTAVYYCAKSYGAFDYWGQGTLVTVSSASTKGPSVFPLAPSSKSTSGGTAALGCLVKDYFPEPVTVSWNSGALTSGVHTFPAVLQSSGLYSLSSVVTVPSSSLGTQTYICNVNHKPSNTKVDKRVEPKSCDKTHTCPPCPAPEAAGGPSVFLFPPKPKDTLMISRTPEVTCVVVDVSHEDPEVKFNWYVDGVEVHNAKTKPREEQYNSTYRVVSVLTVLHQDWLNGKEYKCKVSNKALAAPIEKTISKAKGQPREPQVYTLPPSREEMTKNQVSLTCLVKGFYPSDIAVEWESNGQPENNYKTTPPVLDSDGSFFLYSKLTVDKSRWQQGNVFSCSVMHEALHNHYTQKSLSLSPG
light 1: DIVMTQTPLSLSVTPGQPASISCKSSGDLLTFEGKTYLYWYLQKPGQPPQLLIYEVSNRFSGVPDRFSGSGSGTDFTLKISRVEAEDVGVYYCMQAHSTRFAFTFGQGTKVEIKRTVAAPSVFIFPPSDEQLKSGTASVVCLLNNFYPREAKVQWKVDNALQSGNSQESVTEQDSKDSTYSLSSTLTLSKADYEKHKVYACEVTHQGLSSPVTKSFNRGEC
light 2: SYVLTQPPSVSVAPGKTARITCGGNKIGHRAVHWYQQKPGQAPVLVIYYTYERPSGIPERFSGSNSGNTATLTISRVEAGDEADYYCQVWDWYSEGGVVFGGGTKLTVLGQPKAAPSVTLFPPSSEELQANKATLVCLISDFYPGAVTVAWKADSSPVKAGVETTTPSKQSNNKYAASSYLSLTPEQWKSHRSYSCQVTHEGSTVEKTVAPTECS
notes: κλ-body, huIgG1-LALAPA; also called AI5 (AI_1A9) kappa / O41 (Ob9_1A11) lambda
B6: AI10O41/N (bispecific antibody, human IgG1, kappa, lambda, L234A L235A)
heavy: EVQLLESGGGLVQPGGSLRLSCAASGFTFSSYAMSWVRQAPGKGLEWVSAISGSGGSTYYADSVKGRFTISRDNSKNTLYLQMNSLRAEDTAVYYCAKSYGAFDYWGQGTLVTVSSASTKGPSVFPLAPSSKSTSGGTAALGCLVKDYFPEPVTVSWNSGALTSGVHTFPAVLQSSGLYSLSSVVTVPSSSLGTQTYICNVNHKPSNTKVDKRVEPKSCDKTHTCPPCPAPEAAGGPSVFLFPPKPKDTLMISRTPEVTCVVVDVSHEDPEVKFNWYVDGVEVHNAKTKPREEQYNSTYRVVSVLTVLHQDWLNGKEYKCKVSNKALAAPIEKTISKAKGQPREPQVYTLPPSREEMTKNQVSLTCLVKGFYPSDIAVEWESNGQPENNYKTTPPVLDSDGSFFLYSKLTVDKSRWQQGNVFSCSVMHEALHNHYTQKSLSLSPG
light 1: DIVMTQTPLSLSVTPGQPASISCKSSGDLLEFAGKTYLYWYLQKPGQPPQLLIYEVSNRFSGVPDRFSGSGSGTDFTLKISRVEAEDVGVYYCMQAHGSKIGFTFGQGTKVEIKRTVAAPSVFIFPPSDEQLKSGTASVVCLLNNFYPREAKVQWKVDNALQSGNSQESVTEQDSKDSTYSLSSTLTLSKADYEKHKVYACEVTHQGLSSPVTKSFNRGEC
light 2: SYVLTQPPSVSVAPGKTARITCGGNKIGHRAVHWYQQKPGQAPVLVIYYTYERPSGIPERFSGSNSGNTATLTISRVEAGDEADYYCQVWDWYSEGGVVFGGGTKLTVLGQPKAAPSVTLFPPSSEELQANKATLVCLISDFYPGAVTVAWKADSSPVKAGVETTTPSKQSNNKYAASSYLSLTPEQWKSHRSYSCQVTHEGSTVEKTVAPTECS
notes: κλ-body, huIgG1-LALAPA; also called AI10 (AI_1B6) kappa / O41 (Ob9_1A11) lambda
B7: AI3O35/N (bispecific antibody, human IgG1, kappa, lambda, L234A L235A)
heavy: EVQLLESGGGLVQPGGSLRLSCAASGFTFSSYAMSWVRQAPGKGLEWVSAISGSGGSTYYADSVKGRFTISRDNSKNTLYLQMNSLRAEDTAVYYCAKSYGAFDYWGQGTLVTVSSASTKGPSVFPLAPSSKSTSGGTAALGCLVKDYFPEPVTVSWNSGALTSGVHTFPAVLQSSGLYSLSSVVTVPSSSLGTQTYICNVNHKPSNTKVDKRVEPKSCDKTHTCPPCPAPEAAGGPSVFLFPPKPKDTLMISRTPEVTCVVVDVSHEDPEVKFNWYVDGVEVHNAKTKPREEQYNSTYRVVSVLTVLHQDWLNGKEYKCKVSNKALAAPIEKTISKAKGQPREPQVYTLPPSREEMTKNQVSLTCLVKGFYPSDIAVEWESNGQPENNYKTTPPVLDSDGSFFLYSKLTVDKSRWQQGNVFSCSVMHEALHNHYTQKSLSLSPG
light 1: not shown
light 2: QPVLTQPVSLSASPGASVSLTCTLRSDIRVRDYRIFWYQQKPGSPPQYLLRYKTDSDKQQGSGVPSRFSGSKDASANAGILLISGLQSEDEADYYCMIWHRTTGTSLVFGGGTKLTVLGQPKAAPSVTLFPPSSEELQANKATLVCLISDFYPGAVTVAWKADSSPVKAGVETTTPSKQSNNKYAASSYLSLTPEQWKSHRSYSCQVTHEGSTVEKTVAPTECS
notes: κλ-body, IgG1 LALAPA; also called AI3 (AI_1H5) kappa / O35 (Ob8_A10) lambda
B8: AI3O41/N (bispecific antibody, human IgG1, kappa, lambda, L234A L235A)
heavy: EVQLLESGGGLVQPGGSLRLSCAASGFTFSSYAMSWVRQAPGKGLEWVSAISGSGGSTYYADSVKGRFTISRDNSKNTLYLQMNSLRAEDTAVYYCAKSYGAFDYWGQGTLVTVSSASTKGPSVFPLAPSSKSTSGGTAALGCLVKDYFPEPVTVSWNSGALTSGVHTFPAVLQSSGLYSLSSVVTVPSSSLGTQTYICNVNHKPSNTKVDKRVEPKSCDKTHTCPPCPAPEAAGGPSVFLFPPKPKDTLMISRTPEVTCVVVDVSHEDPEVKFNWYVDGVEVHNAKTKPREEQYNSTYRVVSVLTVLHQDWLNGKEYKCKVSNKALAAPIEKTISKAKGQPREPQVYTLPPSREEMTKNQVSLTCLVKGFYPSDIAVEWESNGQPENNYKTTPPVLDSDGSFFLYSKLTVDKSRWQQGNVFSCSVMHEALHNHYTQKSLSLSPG
light 1: not shown
light 2: SYVLTQPPSVSVAPGKTARITCGGNKIGHRAVHWYQQKPGQAPVLVIYYTYERPSGIPERFSGSNSGNTATLTISRVEAGDEADYYCQVWDWYSEGGVVFGGGTKLTVLGQPKAAPSVTLFPPSSEELQANKATLVCLISDFYPGAVTVAWKADSSPVKAGVETTTPSKQSNNKYAASSYLSLTPEQWKSHRSYSCQVTHEGSTVEKTVAPTECS
notes: κλ-body, IgG1 LALAPA; also called AI3 (AI_1H5) kappa / O41 (Ob9_1A11) lambda
B9: 1a28/AC84/N (bispecific antibody, human IgG1, kappa, L234A L235A)
heavy 1: QSVLTQPPSVSAAPGQKVTISCSGSSSNIGIGLVSWYQQLPGTAPKLLIYNVNTRPSGIPDRFSGSKSGTSATLGITGLQTGDEADYYCGTWDFSYRVDFGGGTKLTVLSSASTKGPSVFPLAPSSKSTSGGTAALGCLVKDYFPEPVTVSWNSGALTSGVHTFPAVLQSSGLYSLSSVVTVPSSSLGTQTYICNVNHKPSNTKVDKKVEPKSCDKTHTCPPCPAPEAAGGPSVFLFPPKPKDTLMISRTPEVTCVVVDVSHEDPEVKFNWYVDGVEVHNAKTKPREEQYNSTYRVVSVLTVLHQDWLNGKEYKCKVSNKALAAPIEKTISKAKGQPREPQVYTLPPCRDELTKNQVSLWCLVKGFYPSDIAVEWQSNGQTENNYKTTPPVLDSDGSFFLYSKLTVDKSRWQQGNVFSCSVMHEALHNHYTQKSLSLSPG
heavy 2: QVQLQESGPGLVKPSETLSLTCTVSGGSISSYYWSWIRQPPGKGLEWIGYIYYSGITHYNPSLKSRVTISVDTSKIQFSLKLSSVTAADTAVYYCARWGVRRDYYYYGMDVWGQGTTVTVSSASTKGPSVFPLAPSSKSTSGGTAALGCLVEDYFPEPVTVTWNSGALSSGVHTFPAVLQSSGLYSLSSVVTVPSSSLGTQTYICNVNHKPSNTKVDEKVEPKSCDKTHTCPPCPAPEAAGGPSVFLFPPKPKDTLMISRTPEVTCVVVDVSHEDPEVKFNWYVDGVEVHNAKTKPREEQYNSTYRVVSVLTVLHQDWLNGKEYKCKVSNKALAAPIEKTISKAKGQPREPQVCTLPPSRDELTKNQVSLSCAVKGFYPSDIAVEWESNGQPENNYKTTPPVLDSDGSFFLVSKLTVDKSRWQQGNVFSCSVMHEALHNHYTQKSLSLSPG
light 1: not shown
light 2: not shown
notes: LALAPA-mutated huIgG1, 1+1 crossMAb/knobs-into-hole; also called benchmark CEA×CD28 bsAb
B10: AI3AC84/N (bispecific antibody, human IgG1, kappa, lambda, L234A L235A)
heavy: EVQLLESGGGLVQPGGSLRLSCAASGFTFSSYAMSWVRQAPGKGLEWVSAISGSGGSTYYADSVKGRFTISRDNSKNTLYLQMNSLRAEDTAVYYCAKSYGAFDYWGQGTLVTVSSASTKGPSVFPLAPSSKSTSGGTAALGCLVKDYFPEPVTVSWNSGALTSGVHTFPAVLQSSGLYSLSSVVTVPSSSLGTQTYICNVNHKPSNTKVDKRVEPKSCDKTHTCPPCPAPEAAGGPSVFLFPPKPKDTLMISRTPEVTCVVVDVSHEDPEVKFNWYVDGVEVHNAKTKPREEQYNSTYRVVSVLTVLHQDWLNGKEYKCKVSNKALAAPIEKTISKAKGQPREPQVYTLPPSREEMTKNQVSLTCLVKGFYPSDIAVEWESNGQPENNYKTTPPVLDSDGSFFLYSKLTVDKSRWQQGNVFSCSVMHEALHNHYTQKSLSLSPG
light 1: not shown
light 2: QSVLTQPPSVSAAPGQKVTISCSGSSSNIGIGLVSWYQQLPGTAPKLLIYNVNTRPSGIPDRFSGSKSGTSATLGITGLQTGDEADYYCGTWDFSYRVDFGGGTKLTVLGQPKAAPSVTLFPPSSEELQANKATLVCLISDFYPGAVTVAWKADSSPVKAGVETTTPSKQSNNKYAASSYLSLTPEQWKSHRSYSCQVTHEGSTVEKTVAPTECS
notes: κλ-body, IgG1 LALAPA; also called AI3 (AI_1H5) kappa / AC84 (AC1g6_1F1) lambda
B11: AI5AC84/N (bispecific antibody, human IgG1, kappa, lambda, L234A L235A)
heavy: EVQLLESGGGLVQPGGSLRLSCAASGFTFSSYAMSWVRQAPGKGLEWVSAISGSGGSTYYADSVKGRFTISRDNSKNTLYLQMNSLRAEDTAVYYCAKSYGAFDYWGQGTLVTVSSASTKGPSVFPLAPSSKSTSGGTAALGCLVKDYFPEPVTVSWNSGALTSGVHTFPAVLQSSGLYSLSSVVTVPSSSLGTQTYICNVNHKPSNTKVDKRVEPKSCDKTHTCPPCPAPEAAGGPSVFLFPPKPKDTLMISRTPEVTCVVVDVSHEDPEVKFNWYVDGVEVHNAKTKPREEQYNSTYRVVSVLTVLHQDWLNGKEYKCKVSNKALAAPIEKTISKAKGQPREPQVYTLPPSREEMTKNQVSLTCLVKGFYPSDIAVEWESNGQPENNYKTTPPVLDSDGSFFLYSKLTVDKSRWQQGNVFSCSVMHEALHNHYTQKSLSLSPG
light 1: DIVMTQTPLSLSVTPGQPASISCKSSGDLLTFEGKTYLYWYLQKPGQPPQLLIYEVSNRFSGVPDRFSGSGSGTDFTLKISRVEAEDVGVYYCMQAHSTRFAFTFGQGTKVEIKRTVAAPSVFIFPPSDEQLKSGTASVVCLLNNFYPREAKVQWKVDNALQSGNSQESVTEQDSKDSTYSLSSTLTLSKADYEKHKVYACEVTHQGLSSPVTKSFNRGEC
light 2: QSVLTQPPSVSAAPGQKVTISCSGSSSNIGIGLVSWYQQLPGTAPKLLIYNVNTRPSGIPDRFSGSKSGTSATLGITGLQTGDEADYYCGTWDFSYRVDFGGGTKLTVLGQPKAAPSVTLFPPSSEELQANKATLVCLISDFYPGAVTVAWKADSSPVKAGVETTTPSKQSNNKYAASSYLSLTPEQWKSHRSYSCQVTHEGSTVEKTVAPTECS
notes: κλ-body, IgG1 LALAPA; also called AI5 (AI_1A9) kappa / AC84 (AC1g6_1F1) lambda
B12: AI10AC84/N (bispecific antibody, human IgG1, kappa, lambda, L234A L235A)
heavy: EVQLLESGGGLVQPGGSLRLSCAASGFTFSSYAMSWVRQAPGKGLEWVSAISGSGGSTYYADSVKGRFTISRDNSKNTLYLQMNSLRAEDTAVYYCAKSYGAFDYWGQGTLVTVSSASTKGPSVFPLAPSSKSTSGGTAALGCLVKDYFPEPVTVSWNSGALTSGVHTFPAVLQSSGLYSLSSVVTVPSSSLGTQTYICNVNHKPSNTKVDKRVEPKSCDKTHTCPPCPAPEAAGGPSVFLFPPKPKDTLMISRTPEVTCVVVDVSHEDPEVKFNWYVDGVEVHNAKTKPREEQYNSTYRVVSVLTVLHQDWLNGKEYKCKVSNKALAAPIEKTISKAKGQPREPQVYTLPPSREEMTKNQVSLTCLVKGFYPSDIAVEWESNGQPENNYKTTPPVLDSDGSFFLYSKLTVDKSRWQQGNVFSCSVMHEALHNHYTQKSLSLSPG
light 1: DIVMTQTPLSLSVTPGQPASISCKSSGDLLEFAGKTYLYWYLQKPGQPPQLLIYEVSNRFSGVPDRFSGSGSGTDFTLKISRVEAEDVGVYYCMQAHGSKIGFTFGQGTKVEIKRTVAAPSVFIFPPSDEQLKSGTASVVCLLNNFYPREAKVQWKVDNALQSGNSQESVTEQDSKDSTYSLSSTLTLSKADYEKHKVYACEVTHQGLSSPVTKSFNRGEC
light 2: QSVLTQPPSVSAAPGQKVTISCSGSSSNIGIGLVSWYQQLPGTAPKLLIYNVNTRPSGIPDRFSGSKSGTSATLGITGLQTGDEADYYCGTWDFSYRVDFGGGTKLTVLGQPKAAPSVTLFPPSSEELQANKATLVCLISDFYPGAVTVAWKADSSPVKAGVETTTPSKQSNNKYAASSYLSLTPEQWKSHRSYSCQVTHEGSTVEKTVAPTECS
notes: κλ-body, IgG1 LALAPA; also called AI10 (AI_1B6) kappa / AC84 (AC1g6_1F1) lambda

molecular target: T1, human CD28 (human, UniProt P10747 19-220); test: flow cytometry on Jurkat cells
T1 construct: whole, on cells; also called huCD28

Binding result, binds:
B1
B2
B3
B4
B5
B6
B7
B8

molecular target: T1, human CD28; test: flow cytometry on Jurkat cells, reference bsAb

Binding result, binds:
B9

molecular target: T1, human CD28; test: worded affinity grade in the in vivo example; no assay named there

Binding result, binds:
B10
B11
B12
